Biological target: T1, p52 (NF-kB2) (human, UniProt Q00653 1-408)
T1 sequence: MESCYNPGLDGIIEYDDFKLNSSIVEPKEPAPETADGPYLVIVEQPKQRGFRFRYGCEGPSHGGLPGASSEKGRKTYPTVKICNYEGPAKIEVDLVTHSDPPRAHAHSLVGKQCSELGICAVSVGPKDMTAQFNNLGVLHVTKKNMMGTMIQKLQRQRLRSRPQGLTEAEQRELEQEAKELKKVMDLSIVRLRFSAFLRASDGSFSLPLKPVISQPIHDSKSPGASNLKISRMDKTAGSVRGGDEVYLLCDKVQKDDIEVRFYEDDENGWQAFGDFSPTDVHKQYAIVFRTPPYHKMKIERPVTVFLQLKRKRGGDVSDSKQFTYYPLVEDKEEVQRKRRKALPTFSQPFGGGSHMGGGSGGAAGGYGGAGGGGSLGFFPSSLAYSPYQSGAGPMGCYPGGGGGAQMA
Test: EMSA

B1: P-selectin kB (A/T) (dsDNA)
DNA 1: TCGACGGAAGGGGGTAACCCCTTGGG
DNA 2: GATCCCCAAGGGGTTACCCCCTTCCG
binding result: binds

— paper PMC4167904
